Assay: yeast display, Sf9 membrane polyspecificity reagent, FACS + sequencing; frameworks hold sequencing errors
Outline: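 Nanobodies from a synthetic yeast display library (Saccharomyces cerevisiae BJ5465), induced 36–48 hours with galactose, were stained 1 hour at 4 °C with 10% biotinylated, detergent-solubilized Sf9 membrane reagent, enriched on streptavidin microbeads, then FACS-sorted. Anti-HA (expression) and streptavidin (reagent binding) fluorescence set low and high (top ~1%) gates. Polyreactivity labels come from the gate of origin. Genes were colony-PCR amplified, MiSeq 2 × 250 sequenced and filtered by CDR length.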

Sequence	polyreactivity (PSR sort gate)
QVQLLESGGGLVQAGGSLRLSCAASGRIFPRYAMGWYRQAPGKERELVASITRRGGSTYYADSVKGRFTISRDNAKNTVYLQMNSLKPEDTAVYYCNALPRAQSYELYNYWGQGTQVTVSS	high polyreactivity
QVQLLESGGGLVQAGGSLRLSCAASGRIFYVNAMGWYRQSPGKERELVAGIDDGVTTYYADSVKGRFTISRDNAKNTVYLLMNRLKPEDTAVYYCAAETSTNPEAYEYWGQGTQVTVSS	low polyreactivity
QVQLLESGGGLVQAGGSLRLSCAASGRTFVSYDMGWDRQAPGKEREVVAAITYSGGASTYYADSVKGRFTISRDYAKKTGYFQMNSLIPEDTAVYYCATDFSLSFELDYWGQGTQVTVSS	low polyreactivity
QVQLLESGGGLVQAGGSLRLSCAASGRTFWAYAMGWYRQAPGKERELVAAIDGGDGSTYYADSVKGRFTISRDYAKNTVYLQMNSLKPEDTAVYYCAAETPSGYYPQQYDYYLGQGTQVTVSS	high polyreactivity
QVQLLESGGGLVQAGGSLRLSCAASGSIFGGNARGWSRQAPGKERELVAAITYSGGSTYYADSVKGRFTISRDNAKNTVYLQMNSLKPEDTAVYYCNADGVVTWYDYWGQGTQVTVSS	low polyreactivity
QVQLLESGGGLVQAGGSLRLSCAASGSIFGYYAMGWYRQAPGKERELVAAISVNGGRTYYADSVKWRFTISRDIAKNTVYLQMNMLKPEDTAVSYCAAELVDFITFRGDFYYWGQGTEVTVSS	high polyreactivity
QVQLLESGGGLVQAGGSLRLSCAASGSIFLTYAMGWYRQAPGKERELVAAISSSGGSTYYADSVKGRFTISRDNSKNTVYLQMNSLKPEVTAVYYCNAAYHFRRTLGRDHWGQGTEVTVSS	low polyreactivity
QVQLLESGGGLVQAGGSLRLSCAASGSIFRANAMGWYRQAPGKERELVAAITNGGRTNYADSVKGRFTISRDNAKNTVYLQMNSLKPEDTAVYYCAKDIYQHAKRRYDYWGQGTQVTVSS	low polyreactivity
QVQLLESGGGLVQAGGSLRLSCAASGSIFRGYAMGWYRQAPGKERELVAGIRGSDGSTYYADSVKGRFTISRDNAKNTVYLQMNSLKPEDTAVYYCAADRRYLDRDKHRYGYWGQGTQVTVSS	low polyreactivity
QVQLLESGGGLVQAGGSLRLSCAASGSIFVINVMGWYRQAPRKDRELVATITGGRSTKYADSVNGRFTISRDNAKNTVYLQMNSLKPEDTAVYYCNIQSKSRGVHDPSGYDYWGQGTQVTVSS	low polyreactivity
QVQLLESGGGLVQAGGSLRLSCAASGSIFWYNAMGWYRQAPGKERELVATISSRGDGTYYADSVKGRFTISRDNAKNTVYLQMNSLKPEDTAVYYCNKYRQQGWEFDYWGQGTQVTVSS	high polyreactivity
QVQLLESGGGLVQAGGSLRLSCAASGSTFKKNAMGWYRQAPGKETELVAAISGIGTRTSYADSLKGRFTISRDNAKNTVYLQMNRLKPEDTAVYYCAARYYGFPSTLKYDYWGQGTQVTVSS	high polyreactivity
QVQLLESGGGLVQAGGSLRLSCAASGSTFYYYAMGWYRQAPGKERELVAAITSGGRTYYADSQKGRFTNSRDNAKNTVYLQMNSLKPEDTAVYYSNKRWTIWGYDYWAQGTQVTVSS	high polyreactivity
QVQLLESGGGLVQAGGSLRLSCAASGYIFGWYTMGWYRQAPGKERELVAAISYSGGDTYYADSVKGRFTNTRDNAKNTVYLQMNSLKPEDTAVYYCAAVDPASPLGEYWGQGTQVTVSS	low polyreactivity
QVQLLESGGGLVQAGGSLRLSCAASGYIFLRNAMGWYRQAPGKERELVAAIRRTGGSTYYADSVKGRFTISRDNAKNTVYLQMNSLKPEDTAVYYCAKRSYTGYEYWGQGTQVTVSS	low polyreactivity
QVQLLESGGGLVQAGGSLRLSCAATRRIFEYNGMGWYRQAPGKDSELVAAIEWNGSPTYADSVKGRFTIARDNAKNTVYLLMNSLKPEDTSVYYCAKAYPGKAPKYDYWGQGTQVTVSS	low polyreactivity
QVQLLESGGGLVQAGGSLRLSCADSGSIFPKNAIGWYRQAPGKERELVAGITSRTGRTYYADSVKGRFTISRDNSKNTVYLQMNRLKPEDTAVYYCAARIGGGPVKYDYWGQGTQVTVSS	high polyreactivity
QVQLLESGGGLVQAGGSLRLSCAHSGLIIWANAMGWYRQAPGKESEMVAAISGSGGRTYYADSVKGRFSISRDNAKNTVYLEMNSLIPEDTAVYFCAAKVSAWKKKSEMNYWGQGTQVTVSS	high polyreactivity
QVQLLESGGGLVQAGGSLRLSCDASGITFGPNAMGWYRQAPGKERELVATISSSGGSTYYSDSVKGRFTISRDNAKNTVLLQMKSLKPEDTAVYYCNSGFDPYLGAYDYWGQGTQVTVSS	low polyreactivity
QVQLLESGGGLVQAGGSLRLTCAASGSTFDYYAMGWYRQAPGKERELVATISYNDDTTYYADSVKGRFTISRDNAKNTVYLQMNSLKPEDTAVYYCNAEVYGGRYYVDMYYWGQGTQVTVSS	low polyreactivity
QVQLLESGGGLVQAGGSLSLSCAASGSTFKHYAMGWYRQAPGKERELVAAISSRGGSTHYADSVKGRFTISRDNAKNTVYLQMNSLKREDTAVYYCARDTDPQSSRSSDYDYWGQGTQVSVSS	low polyreactivity
QVQLLESGGGLVQAGGSRRLSCAASGRTFIFNAMGWYRQAPGKETELVAAISSGGGTNYADSEKGRFTISRDNAKNTVYLQMNSLKPEDTAVYYCARGSYKYRHSYDYWGQGTEVTVSS	low polyreactivity

Sequence	polyreactivity (PSR sort gate)
QVQLLESGGGLVQAGGTLRLSCAASGSIIGRNAMGWYRQAPGKERELVAAITWRTGSTFYADSVKGRFTISRDNAKNTVYLQMNSLKPEDTAVYYCNAAGPAYSYYHWLWGDYNSWRQGTQVTVSS	low polyreactivity
QVQLLESGGGLVQAGGTLRLSCAASGYTFTNNAMGWYRQAPGKERELVAGITRGGSTNYADSVKGRFTISRDNAKNTVSLQMNSLKPEDTAVYYWAADLRPNSQNGLLEDEMDYWGQGTQVTVSS	low polyreactivity
QVQLLESGGGLVQARGSLRISCAASGLTFFFYAMGWYRQAPGKERELVAAISFSGGSTYADSVKGRFTISRDNAKNTVYLQMNSLKPEDTAVYYCNAPPQFATFTYANWRQGTQVTVSS	low polyreactivity
QVQLLESGGGLVQPGGSLRLSCAASGSIFGLNAMGLYRQEPGKETELVAAISGGSTNYADSVKGRFTISRDNAKNTVYFQMISLKPEDTAVYYCAAPRTKYLSNYGFWGEGTQVTVSS	high polyreactivity
QVQLLESGGGLVQSGGSLRLSCADSGNIFVTYAMGWYRQAPGKESELVAGITSSDDSTYYADSVKVRFTISLDNAKNTVYLQMNSLKPEDTAVYYCATYYWEVGIGQFYYWGQGTQVTVSS	low polyreactivity
QVQLLESGGGVVQAGGSLRLSCASSGFTFRINAMGWYRPAPGKERELVAANSGRGGSTYYADSVKGRFTISRDYAKNTVYLQMNSLKPEDTAVYYCAAKGSSSLSYYYWGQGTQVTVSS	high polyreactivity
QVQLLESGGVLVQAGGSLLLSCAASGSIFSPYAMGRYRQAPGKERELVATISTIDGSTTYADSVKGRFTISRDYAKNTVYLQMKSLKPEDTAVYYCNAEYAYFKLWANPYDMDYWGQGTQVTVSS	low polyreactivity
QVQLLESGRGLVQAGGSLRLSCAPSGSIFSGMVMGWYIQAPGKERELVAAISSRGGNTYYADSVKGRFTISRDNAKNTVYLQMNSLITEDTAVYYCNKVKFNWYEWGQGTQVSVSS	high polyreactivity
QVQLLESGVGLDQAGGSLRLSCAASGSTFNRNAMGWYRQAPGKERELVAAITYSGGSTYYADSVKGRFTISRDNAKNTVYLQMNSLNPEDTAVYYCNAPYAGMGYWGQGTQVTVSS	low polyreactivity
QVQLLETGRGLVQAGGSLRISCAASGYTFGVYVMGWYRQAPGQERELVAAISGSTYYADSVNGRFKISRDNAKNTVYLQMNSLKPEDTAVYYCAAESFFFSPRTREIFDYWGQGTQVTVSS	low polyreactivity
QVQLQDSGGGLVQAGGSLGLSCAASGYIFGSGSMGWFRQAPGKERELVATINNGSSTYYADSVKGRFTISRDNSKNTVSLQMNSLKPEDTAVYYCAVYLYRLTFFYYWGQGNQVTVSS	high polyreactivity
QVQLQDSGGGLVQAGGSLRLSCAASGTISYRYRMGWYRQAPRKEVELVAGIRVGSITYDADSVKGRFTISRDNAKNTVYLQMNSLKPEDIAVYYCAVYQKSYRFFPYWGQGTQVTVSS	high polyreactivity
QVQLQDSGGVQAGGSLRLSCAASGYISRSDVMGWYRQAPGKERELVATIINGTITYYADSVKGRFPISRDNAKNTVYLQMNSLNPEDTAVQYCAVVQSDTDSLYYWGQGTQVTVSS	low polyreactivity
QVQLQDSVGCLVQAGGSLRLSCAASGSISIYGYMGWYRQAPGNERELVAAITAGGSTYYADSVKGRFTISRDNAKNTVYLLMKSLKPEDTAVYYCAPYEQRVYDLHYWGQGTQVTVSS	high polyreactivity
QVQLQECGGGLVQAGGSLRLSCAASGNIFDAYIMGWYRQAPGKERELVASVTDGGSTNYADSVKGRFTISRDNAKNTVYLQMNSLKPEDTAVYYCAAIVYPDILTYFDYDYDYFYWGQGTQVTVGS	low polyreactivity
QVQLQECGGGLVQAGGSLRLSCAASVNIFDADIMGSYRQAPGKERELVASVTDGGSTNYADSVKGRFTISRDNAKNTVYLQMNSLKPEDTAVYYCAGIVYPDILTFFDYDYDYFYWGQGTQVTVGS	low polyreactivity
QVQLQECGGGLVQAGGSLRLSCAASVNIFDADIMGWYRQAPGKERELVASVTDGGSTNYADSVKGRFTISRDNAKNTVYLQMNSLKPEDTAVYYCAAIVYPDILTYFEYDYDYFYWGQGTQVTVGS	low polyreactivity
QVQLQEIGGGLVQAGGSLRLRCAASRNISGSSDLGWYHQAPGKEREFVASITSGGTTYYADSVKGRFTISRDNAKKTVYLQMNSLKAEDTAVYYCAVGDPADAEFGYWGQGTQVTVSS	low polyreactivity
QVQLQEIGGGLVQAGGSLRLSCAASGYIIPYYSMRWYRQAPGKERGLVACIAAGTTTNFADCVKGRFTISRDNAKNTVYLQMNSLKPEDAAVYFCAALNAFKTGDWYWGQGTQVTVSS	low polyreactivity
QVQLQERGGGLVQAGGSLLSCAASGTISYYREMGWYRQAPGKERELVAGIGVGTITYYADSVKGRFTISRDNAKNTVYLQMNRLKPEDTAVYFCAAHIDGNDSHAYWGQGTQVTVSS	low polyreactivity
QVQLQERGGGLVQAGGSLRMSCAASGSIFVSVTMGWYRQAPGKERELVASIGRGSTTNHADSVKGLFTISRDNAKNIVYLLMNSLKPEDTAVYYCAALESYGKYHGYWGQGTQVTVSS	low polyreactivity
